{
  "source": "paper PMC5295774",
  "about": "“Stabilization of Nucleosomes by Histone Tails and by FACT Revealed by spFRET Microscopy” (Cancers, 2017)",
  "binders": {"B1": {"name": "Spt16 (501–1006) (domain or fragment, human, UniProt Q9Y5B9 501-1006, looked up)", "chain": "QIQKARKSNVSYKNPSLMPKEPHIREMKIYIDKKYETVIMPVFGIATPFHIATIKNISMSVEGDYTYLRINFYCPGSALGRNEGNIFPNPEATFVKEITYRASNIKAPGEQTVPALNLQNAFRIIKEVQKRYKTREAEEKEKEGIVKQDSLVINLNRSNPKLKDLYIRPNIAQKRMQGSLEAHVNGFRFTSVRGDKVDILYNNIKHALFQPCDGEMIIVLHFHLKNAIMFGKKRHTDVQFYTEVGEITTDLGKHQHMHDRDDLYAEQMEREMRHKLKTAFKNFIEKVEALTKEELEFEVPFRDLGFNGAPYRSTCLLQPTSSALVNATEWPPFVVTLDEVELIHFERVQFHLKNFDMVIVYKDYSKKVTMINAIPVASLDPIKEWLNSCDLKYTEGVQSLNWTKIMKTIVDDPEGFFEQGGWSFLEPEGEGSDAEEGDSESEIEDETFNPSEDDYEEEEEDSDEDYSSEAEESDYSKESLGSEEESGKDWDELEEEARKADRESRY", "notes": "Spt16 subunit of human FACT, residues 501-1006 (without the N-terminal domain); His-MBP tag cut with TEV protease and removed by SEC before mixing with SSRP1; also called suppressor of Ty 16; Spt16 without the NTD; source: E. coli BL21(DE3), purified (Nickel-NTA, TEV cleavage, Superdex 200 SEC)"}},
  "target": "T1, His-MBP-tagged SSRP1 (1–709) (human, UniProt Q08945 1-709)",
  "T1 construct": "SSRP1 subunit of human FACT, residues 1-709; The tag was still on SSRP1 when the complex with Spt16 was purified on Nickel-NTA; it was cut afterwards; also called structure-specific recognition protein 1; source: E. coli BL21(DE3), purified (Nickel-NTA)",
  "T1 sequence (Q08945 whole entry, the tested form may be a part)": "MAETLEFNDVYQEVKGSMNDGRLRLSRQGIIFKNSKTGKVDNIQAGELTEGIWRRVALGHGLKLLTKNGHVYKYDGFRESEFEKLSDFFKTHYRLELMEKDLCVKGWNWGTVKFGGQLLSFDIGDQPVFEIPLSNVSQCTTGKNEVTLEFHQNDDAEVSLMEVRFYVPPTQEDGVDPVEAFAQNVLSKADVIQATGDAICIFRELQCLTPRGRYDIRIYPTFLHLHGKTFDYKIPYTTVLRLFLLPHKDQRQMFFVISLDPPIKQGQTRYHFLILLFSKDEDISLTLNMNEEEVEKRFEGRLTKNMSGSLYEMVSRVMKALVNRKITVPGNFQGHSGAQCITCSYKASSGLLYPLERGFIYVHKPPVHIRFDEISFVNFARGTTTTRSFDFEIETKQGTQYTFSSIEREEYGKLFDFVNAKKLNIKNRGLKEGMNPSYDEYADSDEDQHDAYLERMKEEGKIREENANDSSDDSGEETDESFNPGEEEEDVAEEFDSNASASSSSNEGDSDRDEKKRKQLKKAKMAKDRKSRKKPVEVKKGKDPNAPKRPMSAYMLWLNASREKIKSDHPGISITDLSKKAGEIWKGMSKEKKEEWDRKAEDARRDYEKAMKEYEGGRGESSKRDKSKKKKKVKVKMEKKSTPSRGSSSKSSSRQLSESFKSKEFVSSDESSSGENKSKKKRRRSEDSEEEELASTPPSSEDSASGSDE",
  "test": "pull-down; purified Spt16 and His-MBP-tagged SSRP1 mixed at a 1:1 molar ratio, complex purified on Nickel-NTA by the tag of SSRP1; after TEV cleavage again Nickel-NTA and Superdex 200 SEC; 50 mM NaH2PO4-Na2HPO4, 300 mM NaCl, pH 7.5",
  "conditions": "both partners purified",
  "data": [
    {"binder": "B1", "values": [
      {"measurement": "binding result", "result": "binds"}
    ]}
  ]
}
